This is an account of results in article PMC10747430, “^99mTc-Labeled Cyclic Peptide Targeting PD-L1 as a Novel Nuclear Imaging Probe” (Pharmaceutics, 2023).

A short description of one data set: Serum protein binding. Type of data set: in vitro ADME. Conditions: human serum (diluted 5x), 37 °C, size-exclusion radio-HPLC, n = 3. The method, then:
(§1) The stability of [^99mTc]Tc-iPD-L1 and [^99mTc]Tc-WL12 was evaluated by diluting the samples in human serum (5x). The radiopharmaceuticals (n = 3) were heated at 37 °C and analyzed at 0.5, 3, and 24 h for radiochemical purity by size-exclusion radio-HPLC (ProteinPak 300SW, Waters Corporation, Milford, CT, USA).
(§2) The radioactivity from [^99mTc]Tc-iPD-L1 bound to serum proteins was 1.3 ± 0.8% at 30 min, 3.2 ± 1.3% at 3 h, and 7.6 ± 1.9% at 24 h. High radiochemical stability (>90% at 24 h) was also observed. In the case of [^99mTc]Tc-WL12, protein binding was 1.0 ± 0.4% at 30 min, 3.3 ± 0.9% at 3 h, and 6.0 ± 1.3% at 24 h, with a radiochemical purity of >90% at 24 h. Therefore, there was no significant difference […] in protein binding and serum stability between the radiotracers.
(In gel filtration, larger molecules generally elute earlier.)

The subject of data set [1] is HCC827 cells (PD-L1 positive). Briefly: Cellular uptake and internalization, HCC827. The data set is classed as cell-based, human. As to conditions: HCC827, 1 × 10^6 cells/tube, 7.4 kBq, 37 °C, 1 h, n = 3. The method, then:
Human colorectal cancer HCT116 (PD-L1 positive: 45.1 nTPM), human lung cancer HCC827 (PD-L1 positive: 27.1 nTPM), and […] C6 glioma cells (PD-L1 negative control) were obtained from ATCC (Atlanta, GA, USA). FBS, RPMI, and cell culture medium were obtained from Bovine and Biology (CDMX, MX). Cells were cultured in RPMI medium (5% CO2; 100 µg/mL penicillin, 15% fetal bovine serum, and 100 µg/mL streptomycin; 37 °C).
Cells diluted in phosphate-buffered saline (PBS) (pH 7.4) (1 × 10^6 cells/tube) received three different treatments: (a) [^99mTc]Tc-iPD-L1 (7.4 kBq) (n = 3), (b) and [^99mTc]Tc-WL12 (7.4 kBq) (n = 3), and (c) ^99mTcO4Na (7.4 kBq) (n = 3). Cells were incubated with each treatment at 37 °C for one hour. After incubation, tubes were measured in a NaI(Tl) detector (NML Inc., Houston, TX, USA) to establish the initial or first activity (100%). The tubes were spun at 500 g for 10 min, rinsed once with PBS, and spun once more. The liquid was removed, and the activity in the button was determined, indicating the percentage of cellular uptake (surface uptake) regarding the initial or first activity. Acetic acid/0.5 M NaCl was added, the tubes were centrifuged, and the activity was measured. The liquid was removed, and activity in button activity represented the percentage of activity internalized by cells relative to uptake activity (internalization fraction of surface uptake). […]

The next data set can be described thus: Stability in human serum. The data set is classed as in vitro ADME. Conditions: human serum (diluted 5x), 37 °C, n = 3. The method, then: as §1, §2
Data set [2] in a line: Reversed-phase radio-HPLC retention time (lipophilicity). The data set is classed as physicochemical. Conditions: µBondapak C18 3.9 mm × 30 cm, linear gradient 0.1% TFA-acetonitrile / 0.1% TFA-water in 20 min; used as measure of lipophilicity. The method, then:
For quality control of the [^99mTc]Tc-iPD-L1 and [^99mTc]Tc-WL12 formulations, parameters such as appearance (clear solution), pH (neutral), sterility, absence of bacterial endotoxins, and radiochemical purity (radio-HPLC; Waters Corporation, Milford, CT, USA; 3.9 mm × 30 cm µBondapak™ C18 column; linear gradient system; solvent A: 0.1% TFA-acetonitrile and solvent B: 0.1% TFA-water, from 100 to 30% of A in 20 min) were evaluated according to the Mexican Pharmacopoeia, in its section on “General Methods of Analysis” (MGA). The retention time of [^99mTc]Tc-WL12 was 15.0 ± 0.3 min and 15.5 ± 0.2 min for [^99mTc]Tc-iPD-L1, while the retention times of ^99mTcO4^− and [^99mTc]Tc-EDDA/tricine were 3.5 ± 0.2 min and 4.5 ± 0.2 min, respectively.
The radiochemical purities of [^99mTc]Tc-iPD-L1 and [^99mTc]Tc-WL12 were 95.5 ± 1.5% without the need for additional purification, as determined by reversed-phase radio-HPLC (Figure 8). As expected, the retention time of [^99mTc]Tc-iPD-L1 was higher than that of [^99mTc]Tc-WL12, which is associated with their CLogP values of 6.38 and 5.78, respectively.
Figure 8 Radio-chromatogram of (a) [^99mTc]Tc-iPD-L1 and (b) [^99mTc]Tc-WL12. Reversed-phase column (C18, 3.9 × 300 mm, 10µm particle size).

As for `CCCC[C@H]1C(=O)N(C)[C@@H](CCCC)C(=O)N[C@@H](CCCNC(=O)c2ccc(NN)nc2)C(=O)N[C@H](C(=O)NCC(N)=O)CSCC(=O)N[C@@H](Cc2ccc(O)cc2)C(=O)N(C)[C@@H](C)C(=O)N[C@@H](CC(N)=O)C(=O)N2CCC[C@H]2C(=O)N[C@@H](Cc2c[nH]cn2)C(=O)N[C@@H](CC(C)C)C(=O)N2C[C@H](O)C[C@H]2C(=O)N[C@@H](Cc2c[nH]c3ccccc23)C(=O)N[C@@H](CO)C(=O)N[C@@H](Cc2cn(C)c3ccccc23)C(=O)N1C` [[^99mTc]Tc-WL12, metal not drawn], the “radioactivity bound to serum proteins at 30 min” value in “Serum protein binding” (30 min) amounted to 1.0 ± 0.4%. In addition, the “radioactivity bound to serum proteins at 3 h” value in the data set “Serum protein binding” (3 h) is 3.3 ± 0.9%. Moreover, the “radioactivity bound to serum proteins at 24 h” value in “Serum protein binding” (24 h) is reported as 6.0 ± 1.3%. The “uptake and internalization compared to C6 cells (PD-L1 negative)” value in data set [1] was “significantly higher”. Also, the “stability in human serum” value in “Stability in human serum” (30 min, 3 h and 24 h, size-exclusion radio-HPLC) is “remained stable”. Moreover, the remaining at 24 h in the data set “Stability in human serum” (24 h, size-exclusion radio-HPLC (ProteinPak 300SW), read-out: radiochemical stability / radiochemical purity in human serum at 24 h) was greater than 90%. In data set [2], the “retention time, reversed-phase radio-HPLC” value is 15.0 ± 0.3 min.
